Biological target: GST fused with the C-terminal variable region of LigB (LigBCtv; amino acids 1418-1889) (Leptospira interrogans serovar Pomona)
Assay: ITC

Human plasma fibronectin (natural protein)
Kd: 8.55 µM
